In PMC2975675:

Assays:
GST-Rabin8-F201A (human) = assay: pull-down
GST-Rabin8-L196A (human) = assay: pull-down

percent decrease of association against wild-type GST-Rabin8 (GST-Rabin8-F201A (human)): 52%
percent decrease of association against wild-type GST-Rabin8 (GST-Rabin8-L196A (human)): 39%
Substance: Rab8a (in vitro translated Rab8A-T22N or Rab8A-Q67L) (from UniProt P61006 1-207) (natural protein)
